These results are taken from paper PMC3875388.

This series deals with AhR;ARNT (mouse (C57BL/6);mouse (C57BL/6), UniProt P30561;P53762 1-848;1-791, |). The series is described as follows: EMSA. In general terms: A gel shift assay detects complexes by their altered migration in electrophoresis.
Sequence of AhR;ARNT (P30561 whole entry, chain 1 of 2): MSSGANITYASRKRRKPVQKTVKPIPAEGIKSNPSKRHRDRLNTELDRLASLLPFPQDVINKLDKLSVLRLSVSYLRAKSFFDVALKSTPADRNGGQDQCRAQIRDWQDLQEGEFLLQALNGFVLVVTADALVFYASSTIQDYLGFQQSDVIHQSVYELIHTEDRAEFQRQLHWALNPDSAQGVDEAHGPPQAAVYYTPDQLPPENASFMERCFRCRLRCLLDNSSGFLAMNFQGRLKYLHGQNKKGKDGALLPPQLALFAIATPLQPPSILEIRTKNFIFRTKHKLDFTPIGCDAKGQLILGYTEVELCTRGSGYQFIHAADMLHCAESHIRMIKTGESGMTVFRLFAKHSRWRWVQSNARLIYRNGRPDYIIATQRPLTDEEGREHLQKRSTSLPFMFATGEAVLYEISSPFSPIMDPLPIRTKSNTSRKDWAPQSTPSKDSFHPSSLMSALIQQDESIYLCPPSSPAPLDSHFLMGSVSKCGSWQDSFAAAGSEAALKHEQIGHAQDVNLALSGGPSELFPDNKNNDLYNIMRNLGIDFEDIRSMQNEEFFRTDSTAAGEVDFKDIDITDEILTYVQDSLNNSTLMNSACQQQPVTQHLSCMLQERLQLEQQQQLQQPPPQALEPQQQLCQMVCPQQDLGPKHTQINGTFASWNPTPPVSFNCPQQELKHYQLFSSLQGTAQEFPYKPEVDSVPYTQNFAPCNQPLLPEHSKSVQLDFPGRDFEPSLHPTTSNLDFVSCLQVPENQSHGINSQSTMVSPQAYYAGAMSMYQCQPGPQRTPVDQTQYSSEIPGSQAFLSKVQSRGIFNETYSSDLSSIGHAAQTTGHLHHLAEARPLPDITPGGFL
Sequence of AhR;ARNT (P53762 whole entry, chain 2 of 2): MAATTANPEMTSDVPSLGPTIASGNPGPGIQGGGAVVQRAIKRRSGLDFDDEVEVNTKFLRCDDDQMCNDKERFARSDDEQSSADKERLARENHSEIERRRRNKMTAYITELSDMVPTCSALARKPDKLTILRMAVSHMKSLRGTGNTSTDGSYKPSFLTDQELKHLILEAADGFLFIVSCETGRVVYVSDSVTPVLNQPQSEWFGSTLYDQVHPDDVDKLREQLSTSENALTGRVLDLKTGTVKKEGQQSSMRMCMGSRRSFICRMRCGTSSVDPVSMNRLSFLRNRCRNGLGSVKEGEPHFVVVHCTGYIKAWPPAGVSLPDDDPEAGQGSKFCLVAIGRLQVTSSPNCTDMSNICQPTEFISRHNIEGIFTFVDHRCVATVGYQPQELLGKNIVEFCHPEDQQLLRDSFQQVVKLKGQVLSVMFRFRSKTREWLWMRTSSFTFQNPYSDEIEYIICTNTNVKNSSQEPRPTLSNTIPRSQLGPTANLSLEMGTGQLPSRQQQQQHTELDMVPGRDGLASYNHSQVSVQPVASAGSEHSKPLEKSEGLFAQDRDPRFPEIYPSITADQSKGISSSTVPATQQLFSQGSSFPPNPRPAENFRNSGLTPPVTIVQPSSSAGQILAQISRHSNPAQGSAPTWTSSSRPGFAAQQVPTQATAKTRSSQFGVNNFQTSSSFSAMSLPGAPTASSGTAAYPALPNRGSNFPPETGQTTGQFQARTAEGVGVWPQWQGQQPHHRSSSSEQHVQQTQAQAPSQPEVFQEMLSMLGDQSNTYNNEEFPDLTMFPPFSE

B1: Bax DRE-like (dsDNA)
DNA 1: GATCCAGAAAGCCGGGCGTGGTGGCGCACGCCTTTAATCCCA
DNA 2: GATCTGGGATTAAAGGCGTGCGCCACCACGCCCGGCTTTCTG
B1: the binding result was “no binding”.
